Results from patent publication US20230414780A1 (VECT HORUS, published 2023).
Positions count from the first letter of the chain named. Values belong to the binder of their own block, whether it stands above or below them.

How the values were obtained:
[1] = biological target: T1, murine TfR expressed by murine neuroblastoma Neuro-2a cells (mouse, UniProt Q62351 1-763); assay: cell-based or functional assay
[2] = biological target: T1, murine TfR expressed by murine …; assay: competition with C5-Alexa680 (100 nM) on living Neuro-2a cells, 3 hrs at 37 C, flow cytometry; Ki/app, mean ± SD
Protocol: The binding of VHH-Oligo and VHH-hFc-Oligo conjugates to mTfR was evaluated using a competition assay on living cells expressing the receptor of interest, namely murine neuroblastoma Neuro-2a cells (N2a). N2a cells were grown in Dulbecco's Modified Eagle Medium (DMEM) GlutaMAX supplemented with 10% v/v FBS in 5% CO₂ at 37° C. Cells were seeded two days before experiments in 96-well plates at a density of 50.000 cells/well. […] Resuspended cells were transferred in a 96-deepwell plate (V-bottom) containing 1% fetal bovine serum (FBS)/0.02% sodium azide in phosphate-buffered saline (PBS) and then centrifuged for 5 min at 2000 rpm at 4° C. After removing the supernatant, 5 mM EDTA in D-PBS and 4% paraformaldehyde (PFA) (v/v 1:1) were added into wells to fix cells for 15 min at room temperature. PFA was removed by centrifugation (5 min, 3000 rpm, 4° C.) and cells were resuspended with 5 mM EDTA in D-PBS. Then the cellular A680-associated fluorescence signal was quantified using an Attune™ NxT flow cytometer (Thermo Fisher Scientific) equipped with Attune™ NxT v3.1.2. Experimental data (experimental triplicates) were fitted with GraphPad Prism® software using a nonlinear fit to determine the apparent Ki inhibition constants.

[3] = biological target: T2, human transferrin receptor (hTfR) fused to EGFP, on CHO cells (human, UniProt P02786 1-760); assay: apparent Kd, cell-based assay
T2 construct: whole, on cells; also called human TfR; CHO-hTfR-EGFP; not shown: EGFP from pEGFP-C1 vector, fused to the N-terminal (intracellular) end of hTfR
T2 sequence (P02786 whole entry, the tested form may be a part): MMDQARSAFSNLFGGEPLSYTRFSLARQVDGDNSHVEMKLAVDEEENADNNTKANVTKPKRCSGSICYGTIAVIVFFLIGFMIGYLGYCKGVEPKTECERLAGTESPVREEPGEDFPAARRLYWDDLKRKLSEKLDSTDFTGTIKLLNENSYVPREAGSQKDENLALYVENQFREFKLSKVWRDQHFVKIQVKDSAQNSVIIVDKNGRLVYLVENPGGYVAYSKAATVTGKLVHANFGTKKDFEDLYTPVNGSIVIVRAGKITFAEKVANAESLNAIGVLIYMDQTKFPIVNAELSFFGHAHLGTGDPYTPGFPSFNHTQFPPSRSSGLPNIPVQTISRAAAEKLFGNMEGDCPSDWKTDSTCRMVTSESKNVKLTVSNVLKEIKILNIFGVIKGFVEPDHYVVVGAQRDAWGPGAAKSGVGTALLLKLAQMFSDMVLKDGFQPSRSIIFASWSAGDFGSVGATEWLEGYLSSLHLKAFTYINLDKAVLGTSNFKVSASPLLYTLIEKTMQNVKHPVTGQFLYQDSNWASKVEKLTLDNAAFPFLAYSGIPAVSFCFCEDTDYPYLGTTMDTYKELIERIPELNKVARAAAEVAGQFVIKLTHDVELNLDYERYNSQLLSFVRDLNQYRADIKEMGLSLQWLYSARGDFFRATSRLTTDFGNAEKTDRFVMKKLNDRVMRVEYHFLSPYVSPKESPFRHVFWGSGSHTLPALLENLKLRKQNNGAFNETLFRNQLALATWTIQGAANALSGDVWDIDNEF

[4] = biological target: T2, human transferrin receptor (hTfR) fused …; assay: cell-based assay on hTfR; Kd/app (the text, paragraph 408, gives 16.7 nM for this molecule)
[5] = biological target: T2, human transferrin receptor (hTfR) fused …; assay: apparent Kd, flow cytometry, CHO cells
[6] = biological target: T2, human transferrin receptor (hTfR) fused …; assay: flow cytometry on CHO-hTfR-EGFP cells, 1 hr at 4 C, anti-6His + Alexa647 anti-mouse; apparent Kd, mean ± SEM of 3 experiments
Protocol: (§1) (A) CHO-hTfR-EGFP and CHO-mTfR-EGFP cells were incubated 1 hr at 4° C. with various concentrations of VHHs, detected with a mouse anti-6His (1/1000) and an Alexa647-conjugated anti-mouse secondary antibody (1/400). Measurements were performed using flow cytometry. The ratio of fluorescence intensity for each point was normalized with the corresponding EGFP signal (receptor expression) and gave rise to the arbitrary unit. Data are presented as mean±SEM of 3 independent experiments. (B) Characteristics of VHHs: Molecular Weight (Da); Theoretical pI; Apparent Kd on human TfR (nM); Apparent Kd on mouse TfR (nM). Data are presented as mean±SEM of 3 independent experiments. NB: no binding, LB: low binding.
(§2) All experiments were performed in 96 well plates using 2×10⁵ cells/well, at 4° C. with shaking. CHO cell lines stably expressing the hTfR or the mTfR fused to EGFP or CHO WT cells were saturated with PBS/BSA 2% solution during 30 min to avoid non-specific binding, followed by incubation with purified VHHs at concentrations ranging from 50 μM to 5 μM for 1 hr. After one wash in PBS/BSA 2%, cells were incubated for 1 hr with an anti-6His tag antibody (mouse), washed twice with PBS/BSA 2%, and incubated for 45 min with an Alexa647-conjugated anti-mouse secondary antibody. […] Fluorescence levels were assessed using an Attune NxT Flow Cytometer (Thermo Fisher Scientific).

[7] = biological target: T3, mouse transferrin receptor (mTfR) fused to EGFP, on CHO cells (mouse, UniProt Q62351 1-763); assay: flow cytometry on CHO-mTfR-EGFP cells, 1 hr at 4 C, anti-6His + Alexa647 anti-mouse; apparent Kd, mean ± SEM of 3 experiments
T3 construct: whole, on cells; also called mouse TfR; CHO-mTfR-EGFP; not shown: EGFP
T3 sequence (Q62351 whole entry, the tested form may be a part): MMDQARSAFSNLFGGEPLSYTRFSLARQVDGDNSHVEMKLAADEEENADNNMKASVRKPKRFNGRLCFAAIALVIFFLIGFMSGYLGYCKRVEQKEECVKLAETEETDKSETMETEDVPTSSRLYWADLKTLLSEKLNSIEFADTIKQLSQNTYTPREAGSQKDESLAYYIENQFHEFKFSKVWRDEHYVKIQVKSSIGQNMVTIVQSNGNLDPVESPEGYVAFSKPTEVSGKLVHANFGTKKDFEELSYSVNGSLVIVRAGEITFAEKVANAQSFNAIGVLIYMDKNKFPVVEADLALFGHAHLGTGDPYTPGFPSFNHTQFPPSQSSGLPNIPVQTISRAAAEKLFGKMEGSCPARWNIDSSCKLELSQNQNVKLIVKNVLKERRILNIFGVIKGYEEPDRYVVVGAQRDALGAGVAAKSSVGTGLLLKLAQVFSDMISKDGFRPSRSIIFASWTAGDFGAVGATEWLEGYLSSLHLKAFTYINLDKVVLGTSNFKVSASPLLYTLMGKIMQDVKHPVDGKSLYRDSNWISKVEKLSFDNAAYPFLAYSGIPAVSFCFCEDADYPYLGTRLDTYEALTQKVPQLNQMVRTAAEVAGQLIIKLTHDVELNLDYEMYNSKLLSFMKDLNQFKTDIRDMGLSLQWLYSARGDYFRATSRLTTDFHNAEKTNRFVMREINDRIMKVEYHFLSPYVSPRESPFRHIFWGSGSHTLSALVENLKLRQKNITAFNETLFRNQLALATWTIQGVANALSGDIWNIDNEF
Protocol: as §1, §2

[8] = biological target: T3, mouse transferrin receptor (mTfR) fused …; assay: flow cytometry on CHO-mTfR-EGFP cells, 1 hr at 4 C, anti-6His + Alexa647 anti-mouse
Protocol: as §1, §2

[9] = biological target: T2, human transferrin receptor (hTfR) fused …; assay: flow cytometry, CHO cells
Protocol: (§3) The binding properties of VHHs with affinity for the TfR from different species (i.e., human (h), mouse (m) and rhesus monkey (rh)) were tested using flow cytometry, and apparent affinities (Kd app) were determined. All experiments were performed in 96 well plates using 2×10⁵ cells/well, at 4° C. with shaking. CHO cell lines expressing the hTfR, mTfR or rhTfR fused to EGFP were saturated with PBS/BSA 2% solution during 30 min to avoid nonspecific binding, followed by incubation with purified VHHs at increasing concentrations for 1 hr. After one wash in PBS/BSA 2%, cells were incubated for 1 hr with an anti-6His tag antibody (mouse), washed twice with PBS/BSA 2%, and incubated for 1 hr with an Alexa647-conjugated anti-mouse secondary antibody. After two last washes in PBS/BSA 2%, cells were fixed by incubation for 15 min with PBS/PFA 2%, washed once with PBS and finally resuspended in PBS. Fluorescence levels were assessed using an Attune NxT flow cytometer (Thermo Fisher Scientific). Experimental data were fitted with GraphPad Prism® software using a nonlinear fit to determine the apparent Kd constants. […] Table 5 hereafter summarizes apparent Kd obtained for the tested VHHs.

[10] = biological target: T3, mouse transferrin receptor (mTfR) fused …; assay: flow cytometry, CHO cells
Protocol: as §3

[11] = biological target: T2, human transferrin receptor (hTfR) fused …; assay: apparent Kd, flow cytometry, CHO cells; remark: listed apart in the source
Method in brief: (§4)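 CHO cells expressing TfR-EGFP fusions, blocked in PBS/BSA 2%, then incubated with increasing VHH concentrations for 1 hr at 4° C. Bound VHH detected via anti-6His antibody and Alexa647 secondary, cells PFA-fixed, read by flow cytometry. Apparent Kd from nonlinear fit.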

[12] = biological target: T4, rhesus monkey transferrin receptor (rhTfR) fused to EGFP, on CHO cells (rhesus monkey); assay: apparent Kd, flow cytometry, CHO cells
T4 construct: whole, on cells; also called rhesus monkey TfR
Method in brief: as §4

[13] = biological target: T2, human transferrin receptor (hTfR) fused …; assay: competition flow cytometry on CHO-hTfR-EGFP cells, 4 C; VHH competitor in dilution series, phage-H1 tracer at EC80, anti-M13-A647
Protocol: FIGS. 17A-17D: Competition assays between VHHs and phage-VHHs. CHO-hTfR-EGFP cells were incubated 1 hr at 4° C. with VHHs (competitors) at increasing concentrations. Phage-VHHs (tracers) were then added at EC80 and incubated for 1 more hr. Phage-VHHs were detected with an anti-M13-A647 antibody (1/200). Fluorescence levels were assessed using flow cytometry. The ratio of fluorescence intensity for each point was normalized with the corresponding EGFP signal (receptor expression) and gave rise to the arbitrary unit. Data are presented as mean±SEM of independent experiments.
To evaluate whether selected VHHs compete one with the other for binding to the TfR receptor, competition assays using flow cytometry experiments were performed. All experiments were performed in 96 well plates using 2×10⁵ cells/well, at 4° C. with shaking. CHO cell line expressing the hTfR fused to EGFP was saturated with PBS/BSA 2% solution during 30 min to avoid nonspecific binding, followed by incubation with VHH (competitors) at increasing concentrations for 1 hr. Then, phage-VHHs (tracers) at EC80 were added and incubated 1 hr more. To detect the phage-VHHs, cells were washed twice with PBS/BSA 2% and incubated for 1 hr with an Alexa647-conjugated anti-M13 antibody. […] Fluorescence levels were assessed using an Attune NxT flow cytometer (Thermo Fisher Scientific). […]

[14] = biological target: T2, human transferrin receptor (hTfR) fused …; assay: cell-based assay on hTfR; Kd/app (the text, paragraph 408, gives 25.6 nM for this molecule)

T1 sequence (Q62351 whole entry): as the sequence (Q62351 whole entry, the tested form may be a part) above

B1: C5-siSOD1m-5'VP (VHH, not shown: small tags and cut ends)
VHH: EVQLVESGGGVVQPGGSLKLSCVASGTDFSINFIRWYRQAPGKQREFVAGFTATGNTNYADSMKGRFTISRDNTKNAVYLQIDSLKPEDTAVYYCYMLDKWGQGTQVTVSS
modifications: siSOD1m-5'VP siRNA duplex linked by a stable linker (azide/alkyne click) to the VHH
notes: also called VHH-siSOD1m-5'VP wherein VHH is C5
IC50 of mSOD1 mRNA downregulation, free uptake on Neuro-2a cells [1]: 7.4 nM
Ki [2]: 164 nM

B2: C5V30-NT(8-13) (VHH)
VHH: B1 VHH with F29K
Kd [3]: 16.7 nM
Kd [4]: 25.6 nM

B3: VHH A6 (C5^V6) (VHH)
VHH: B1 VHH with M97A
Kd [5]: 3 to 4 nM
Kd [6]: 3.4 nM
Kd [7]: 182 nM

B4: VHH A7 (C5^V7) (VHH)
VHH: B1 VHH with L98A
Kd [5]: 255 nM
binding result [8]: binds

B7: B8V31-NT(8-13) (VHH)
VHH: EVQLVESGGGVVQPGGSLRLSCAASGEIKSINFMRWYRQAPGKQREWVAGFTRDGSTNYPDSAKGRFTISRDNAKNTVYLQIDSLKPEDTAVYYCYMLDTWGQGTQVTVSS
Kd [3]: 25.6 nM
Kd [14]: 16.7 nM

Continued, values first:

binding result [9]: no binding
binding result [10]: no binding
B5: D12 (neg ctrl) (VHH)
VHH: EVQLVESGGGLVQPGGSLRLSCAASGFTFGSYVMSWVRQAPGKGPEWVSTVSSGGGTTYYADSVKGRFTISRDNAQNTLYLQMNSLKPEDTAVYYCATGRTGLGEGDHRGQGTQVTSSAAAEQKLISEEDLNGAAHHHHHHGS
notes: also called control VHH D12

binding result [10]: no binding
Kd [11]: 3.4 nM
Kd [12]: 2.1 nM
IC50 (read off the curve) [13]: ~40 nM
B6: E8 (VHH)
VHH: EVQLVESGGRLVQAGGSLRLSCTASGLAFSTHTMHWFRQAPGKEREFVGAIRWSDEDTEYADSVKGRFTISRDNAKSTVYLQMNNLKPEDTAVYYCAAARGVGTSGHMKYWGQGTQVTVSS
